Source: article PMC2174084 (The Journal of Cell Biology, 2002)
No end group written: not given here.

Target: rabbit skeletal muscle actin, polymerized (F-actin) (rabbit, UniProt P68135 1-377)
Experiment: co-sedimentation

Row | Binder | binding result | percent of the protein sedimenting with actin [%]
1 | LYAVGGHDGPMVRRSVEAYDCETNSWRSVADMSYCRRNAGVVAHDGL (domain or fragment, cysteine pairing not given here; also: biotin-labeled, place not given here) [Kelch repeat 5 (L594-L640)] | binds | 
2 | LYAVGGHDGPMVRRSVEAYDCETNSWRSVADMSDCRRNAGVVAHDGL (domain or fragment, cysteine pairing not given here; also: biotin-labeled, place not given here) [Kelch repeat 5 (L594-[Y627D]-L640)] |  | < 50
3 | LYAVGGHDGPMVRRSVEAYDCETNSWRSVADMSFCRRNAGVVAHDGL (domain or fragment, cysteine pairing not given here; also: biotin-labeled, place not given here) [Kelch repeat 5 (L594-[Y627F]-L640)] |  | 100
4 | LYAVGGHDGPMVRRSVEAYDCETNSWRSVADMSACRRNAGVVAHDGL (domain or fragment, cysteine pairing not given here; also: biotin-labeled, place not given here) [Kelch repeat 5 (L594-[Y627A]-L640)] |  | 100
